Patent US6348573B1, “Compositions and methods for identifying apoptosis signaling pathway inhibitors and activators” (The Regents of the University of Michigan, priority 1998, dated 2002)

Experiments:
[1] = test system: FADD, RAIDD, Bcl-XL, and c-IAP-2; experiment: Association of ARC with other apoptosis regulatory molecules; type: binding; conditions: data not shown
Method: Briefly, 2 μg of pcDNA3 or pcDNA3-ARC-Flag or -HA was co-transfected with 3 μg of pcDNA3 or caspase expression plasmids. Total amount of transfected plasmid DNA was always 5 μg. 293T cells were harvested after 22 hr and lysed with 0.2% NP-40 isotonic lysis buffer [Z. N. Oltvai et al., Cell 74:609-619 (1993)]. For immunoprecipitation, […] of soluble protein was incubated with 10 μg/ml of polyclonal anti-Flag, monoclonal anti-AU1 or polyclonal anti-HA antibody for 2 hr at 4° C. and tagged proteins were immunoprecipitated with Protein A-Sepharose 4B (Zymed Laboratories Inc., San Francisco, Calif.). Immunoprecipitates were subjected to 12% SDS-polyacrylamide electrophoresis and immunoblotted with anti-Flag, anti-AU1 or anti-HA antibodies.

293T cells = experiment: β-galactosidase apoptosis assay, ARC co-transfection; type: cell-based, human
Method: Briefly, 2 μg of pcDNA3 or pcDNA3-ARC-Flag or -HA was co-transfected with 3 μg of pcDNA3 or caspase expression plasmids. Total amount of transfected plasmid DNA was always 5 μg. 293T cells were harvested after 22 hr and lysed with 0.2% NP-40 isotonic lysis buffer [Z. N. Oltvai et al., Cell 74:609-619 (1993)]. For immunoprecipitation, […] of soluble protein was incubated with 10 μg/ml of polyclonal anti-Flag, monoclonal anti-AU1 or polyclonal anti-HA antibody for 2 hr at 4° C. and tagged proteins were immunoprecipitated with Protein A-Sepharose 4B (Zymed Laboratories Inc., San Francisco, Calif.). Immunoprecipitates were subjected to 12% SDS-polyacrylamide electrophoresis and immunoblotted with anti-Flag, anti-AU1 or anti-HA antibodies. β-galactosidase apoptosis assay and Caspase-8 enzymatic assay: 5×10^5 293T cells were transfected with 0.3 μg of pcDNA3-β-gal plus each expression plasmid in triplicate. Cells were fixed 16 hrs after transfection, stained for β-galactosidase and assayed for morphological features of apoptosis [M. Muira et al., Cell 75:653-660 (1993)]. Statistical significance was determined by one-way ANOVA followed by Student-Neuman-Keuls post-doc comparisons. For caspase-8 enzymatic assay, 1.5×10^6 human 293T cells were co-transfected with pcDNA3, pcDNA3-ARC-Flag, pcDNA3-caspase-8 and pcDNA3-caspase-8-mt by a calcium phosphate method. Total amount of transfected plasmid DNA was always 2.5 μg. 293T cells were harvested 18hr after transfection and lysed with 0.2% NP-40 isotonic lysis buffer. Tagged proteins were immunoprecipitated and caspase activity was measured as described [N. Inohara et al., Proc. Natl. Acad. Sci. USA 94:10717-10722 (1997)].

c-IAP-2 = c-IAP-2 (UniProt Q13489 1-604); experiment: co-immunoprecipitation from co-transfected 293T cells (data not shown)
c-IAP-2, sequence (Q13489 whole entry): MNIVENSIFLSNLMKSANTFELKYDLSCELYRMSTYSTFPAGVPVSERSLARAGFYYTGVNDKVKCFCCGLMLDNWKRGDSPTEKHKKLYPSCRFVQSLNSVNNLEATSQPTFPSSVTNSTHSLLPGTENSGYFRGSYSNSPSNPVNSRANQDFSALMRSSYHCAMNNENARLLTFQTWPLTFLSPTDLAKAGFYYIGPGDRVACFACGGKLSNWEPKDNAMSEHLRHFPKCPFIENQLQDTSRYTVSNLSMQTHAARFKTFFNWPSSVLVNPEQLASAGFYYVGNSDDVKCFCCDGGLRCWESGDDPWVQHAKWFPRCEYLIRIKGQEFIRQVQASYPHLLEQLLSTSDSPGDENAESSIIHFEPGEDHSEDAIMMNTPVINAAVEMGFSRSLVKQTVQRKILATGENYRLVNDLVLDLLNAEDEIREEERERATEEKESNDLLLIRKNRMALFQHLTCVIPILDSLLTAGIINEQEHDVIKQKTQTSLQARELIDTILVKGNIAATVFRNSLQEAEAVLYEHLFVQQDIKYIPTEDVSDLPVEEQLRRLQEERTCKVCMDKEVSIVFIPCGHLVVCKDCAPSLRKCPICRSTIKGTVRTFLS

Bcl-XL = Bcl-XL (UniProt Q07817 1-233); experiment: as above
Bcl-XL, sequence (Q07817 whole entry): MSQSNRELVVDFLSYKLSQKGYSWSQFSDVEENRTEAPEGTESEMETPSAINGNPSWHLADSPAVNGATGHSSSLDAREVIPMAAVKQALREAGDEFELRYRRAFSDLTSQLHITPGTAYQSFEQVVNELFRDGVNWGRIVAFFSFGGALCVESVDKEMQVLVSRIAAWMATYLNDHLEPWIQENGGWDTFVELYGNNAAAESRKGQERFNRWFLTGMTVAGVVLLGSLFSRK

[2] = biological target: T1, caspase-9, Flag-tagged (pcDNA3-caspase-9-Flag) (UniProt P55211 1-416); experiment: co-immunoprecipitation from co-transfected 293T cells, immunoblot
T1 construct: not shown: Flag tag
T1 sequence (looked up): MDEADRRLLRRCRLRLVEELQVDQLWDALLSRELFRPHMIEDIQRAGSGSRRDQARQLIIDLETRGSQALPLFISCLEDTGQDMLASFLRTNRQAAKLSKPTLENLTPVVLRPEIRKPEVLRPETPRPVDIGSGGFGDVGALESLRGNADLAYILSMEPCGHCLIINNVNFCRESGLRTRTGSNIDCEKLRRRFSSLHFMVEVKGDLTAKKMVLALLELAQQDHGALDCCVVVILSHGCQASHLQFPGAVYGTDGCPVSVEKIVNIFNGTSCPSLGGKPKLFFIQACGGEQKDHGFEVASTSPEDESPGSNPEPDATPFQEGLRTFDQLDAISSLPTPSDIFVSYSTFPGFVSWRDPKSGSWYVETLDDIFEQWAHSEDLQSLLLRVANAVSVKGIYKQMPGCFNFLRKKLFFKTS

[3] = biological target: T2, caspase-1, epitope-tagged (human, UniProt P29466 1-404); experiment: as above
T2 construct: also called pcDNA3-caspase-1-Flag
T2 sequence: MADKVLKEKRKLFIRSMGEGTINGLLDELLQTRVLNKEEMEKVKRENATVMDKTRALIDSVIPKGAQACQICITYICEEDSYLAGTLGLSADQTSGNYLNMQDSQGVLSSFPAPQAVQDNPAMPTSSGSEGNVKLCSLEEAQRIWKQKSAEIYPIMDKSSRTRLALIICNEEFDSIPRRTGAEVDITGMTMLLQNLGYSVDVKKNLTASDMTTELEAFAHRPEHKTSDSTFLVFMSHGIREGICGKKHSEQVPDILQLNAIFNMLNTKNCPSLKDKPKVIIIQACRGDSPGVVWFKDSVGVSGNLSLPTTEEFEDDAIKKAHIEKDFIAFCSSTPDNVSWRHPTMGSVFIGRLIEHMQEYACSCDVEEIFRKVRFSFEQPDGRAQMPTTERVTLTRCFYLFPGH

[4] = biological target: T3, caspase-3, epitope-tagged (UniProt P42574 1-277); experiment: as above
T3 construct: also called pcDNA3-caspase-3-Flag; not shown: position and
T3 sequence (looked up): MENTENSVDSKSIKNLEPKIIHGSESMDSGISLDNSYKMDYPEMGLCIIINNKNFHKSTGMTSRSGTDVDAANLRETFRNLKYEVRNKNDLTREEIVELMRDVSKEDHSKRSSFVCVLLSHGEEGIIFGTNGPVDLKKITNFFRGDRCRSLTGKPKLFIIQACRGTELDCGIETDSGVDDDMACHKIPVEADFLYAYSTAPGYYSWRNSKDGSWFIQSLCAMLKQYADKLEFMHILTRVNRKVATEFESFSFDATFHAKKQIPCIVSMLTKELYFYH

B1: human ARC (Apoptosis Repressor with CARD domain), C-terminally Flag- or HA-tagged (other)
chain: MGNAQERPSETIDRERKRLVETLQADSGLLLDALLARGVLTGPEYEALDALPDAERRVRRLLLLVQGKGEAACQELLRCAQRTAGAPDPAWDWQHVGPGYRDRSYDPPCPGHWTPEAPGSGTTCPGLPRASDPDEAGGPEGSEAVQSGTPEEPEPELEAEASKEAEPEPEPEPELEPEAEAEPEPELEPEPDPEPEPDFEERDESEDS
notes: Entire open reading frame expressed in 293T cells; The two tagged constructs are merged here; also called ARC-Flag; ARC-HA; not shown: C-terminal FLAG or HA tag
association with FADD, RAIDD, Bcl-XL, and c-IAP-2 [1]: did not associate | induction of apoptosis by expression of ARC (293T cells; ARC alone): did not induce apoptosis | apoptosis induced by C. elegans CED-3 (293T cells; co-expression with ARC): inhibited | apoptosis induced by CLARP (293T cells; co-expression with ARC): inhibited | apoptosis induced by FADD (293T cells; co-expression with ARC): inhibited | apoptosis induced by TRADD (293T cells; co-expression with ARC): inhibited | apoptosis induced by caspase-8 (293T cells; co-expression with ARC): inhibited caspase-8-induced killing in a dose-dependent manner | apoptosis induced by stimulation of CD95/Fas receptor (293T cells; co-expression with ARC): partially but significantly inhibited | apoptosis induced by stimulation of TNF-R1 receptor (293T cells; co-expression with ARC): partially but significantly inhibited | apoptosis induced by stimulation of TRAMP/DR3 receptor (293T cells; co-expression with ARC): partially but significantly inhibited | apoptosis mediated by caspase-9 (293T cells; co-expression with ARC): not | binding result (c-IAP-2): no binding | binding result (Bcl-XL): no binding | binding result [2]: no binding | binding result [3]: no binding | binding result [4]: no binding
